assay: yeast display, Sf9 membrane polyspecificity reagent, FACS + sequencing; frameworks hold sequencing errors
Method in brief: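 Nanobodies from a synthetic yeast display library (Saccharomyces cerevisiae BJ5465), induced 36–48 hours with galactose, were stained 1 hour at 4 °C with 10% biotinylated, detergent-solubilized Sf9 membrane reagent, enriched on streptavidin microbeads, then FACS-sorted. Anti-HA (expression) and streptavidin (reagent binding) fluorescence set low and high (top ~1%) gates. Polyreactivity labels come from the gate of origin. Genes were colony-PCR amplified, MiSeq 2 × 250 sequenced and filtered by CDR length.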

| Sequence | polyreactivity (PSR sort gate) |
| --- | --- |
| QVQLVESGGGLVQAGGSLRLSCAASGSILSINGMGWYRQAPGKERELVATIDGSDGSTFYADSVKGRFTISRDNAKNTVYLQMNSLKPEDTAVYYCAAENFWQTKEYDYWGQGTQVTVSS | low polyreactivity |
| QVQLVESGGGLVQAGGSLRLSCAASGSILSLYTMGWYRQAPGKERELVARISRSGGSTYYADSVKGRFTISRDNAKNTVYLQMNSLKTEDTAVYYCAARPYVVIYYGKSRGYYWGQGTQVTVSS | high polyreactivity |
| QVQLVESGGGLVQAGGSLRLSCAASGSILSPNAMGWYRQAPGKERELVADISSVGSTYYADSVKGRFTISRDNAKNTVYLQMNSLKPEDTAVYYCAAEFRATDGIGYDYWGQGTHVTVSS | low polyreactivity |
| QVQLVESGGGLVQAGGSLRLSCAASGSILSYYAMGWYRQAPGKEREFVAAISSGGGTYYADSVKGRFTISRDNAKNTVYLQMNSLKPEDTAVYYCNAEIWTEGGYWGQGTQVTVSS | low polyreactivity |
| QVQLVESGGGLVQAGGSLRLSCAASGSILSYYTMGWYRQAPGKERELVAAISAGGGSTYYADSVKGRFTISRDNAKNTVYLQMNSLKPEDTAVYYCASGFSRRWQYNYWGQGTQVTVSS | high polyreactivity |
| QVQLVESGGGLVQAGGSLRLSCAASGSILSYYVMGWYRQAPGKERELVAAITSDGSKNYADSVKGRFTISRDNAKNTVYLQMNSLKPEDTAVYYCAAVIAWYYGVQDVYYLGLYDYWGQGTQVTVSS | low polyreactivity |
| QVQLVESGGGLVQAGGSLRLSCAASGSILTGNAMGWYRQAPGKERELVAGITVGGTSTYYADSVKGRFTISRDNAKNTVYLQMNSLKPEDTAVYYCAAGYRSYWGVYDFDYWGQGTQVTVSS | low polyreactivity |
| QVQLVESGGGLVQAGGSLRLSCAASGSILTVYAMGWYRQAPGKERELVAAITSSGGITYYADSVKGRFTISRDNAKNTVYLQMHSLKPEDTAVYYCAAYGYGSNYRYTGYYYWGQGTQVTVSS | low polyreactivity |
| QVQLVESGGGLVQAGGSLRLSCAASGSILVEYAMGWYRQAPGKERELVAGISGSTGTTYYADSVKGRFTISRDNAKNTVYLQMNSLKPEDTAVYYCAKLFPVARPQYGYWGQGTQVTVSS | low polyreactivity |
| QVQLVESGGGLVQAGGSLRLSCAASGSILVLNDMGWYRQAPGKERELVATITSGGNTYYADSVKGRFTISRDNAKNTVYLQMNSLKPEDTAVYYCNARWQRPYDYWGQGTQVTVSS | low polyreactivity |
| QVQLVESGGGLVQAGGSLRLSCAASGSILVRYAMGWYRQAPGKERELVAAITYSVGSTYYADSVKGRFTISRDNAKNTVYLQMNSLKPEDTAVYYCAASGGTEVLLMDYWGQGSQVTVSS | low polyreactivity |
| QVQLVESGGGLVQAGGSLRLSCAASGSILVYNAMGWYRQAPGKERELVDAISNTGRTYYADSVKGRFTISRDNAKNTVYLQMNSLKPEDTAVYYCADRFYRVLHRFGYWGQGTQVTVSS | high polyreactivity |
| QVQLVESGGGLVQAGGSLRLSCAASGSILVYYAMGWYRQAPGKERELVAAISSGGSTNYADSVKGRFTISRDNAKNTVYLQMNSLKPEDTAVYYCAKESGWVGAIHYDYWGQGTQVTVSS | low polyreactivity |
| QVQLVESGGGLVQAGGSLRLSCAASGSILWLNAMGWYRQAPGKERELVADITRGGSTYYADSVKGRFTISRDNAKNTVYLQMNSLTPEDTAVYYCAADAYTCQIPYYYFEHYYWGQGTQVTVSS | high polyreactivity |
| QVQLVESGGGLVQAGGSLRLSCAASGSILWYYAMGWYRQAPGKERELVATITSGGSTYYADSVKGRFTMSRDNAKNTVYLQMNILKTEDTAVYYCNADLAVDEYVYWGQGTQVTVSS | low polyreactivity |
| QVQLVESGGGLVQAGGSLRLSCAASGSILYIYAMGWYRQAPGKERELVAAITSSVGRTYYADSVKGRFTISRDNAKNTVYLQMNSLKPEDTAVYYCAAEYYYSQVAYDYWGQGTQVTVSS | high polyreactivity |

| Sequence | polyreactivity (PSR sort gate) |
| --- | --- |
| QVQLVESGGGLVQAGGSLRLSCAASGSILYPNAMGWYRQAPGKERELVAAISSSGGRTYYADSVKGRFTISRDNAKNTVYLQMNSLKPEDTAVYYCATVSIAGPRYDYWGQGTQVTVSS | high polyreactivity |
| QVQLVESGGGLVQAGGSLRLSCAASGSILYSYAMGWYRQAPGKERELVARITKRGGRTYYADSVKGRFTISRDNAKNTVYILMNSLKPEDTAVYYCAADFQYSYGEYDYWGQGTQVTVSS | high polyreactivity |
| QVQLVESGGGLVQAGGSLRLSCAASGSILYVYAMGWYRPAPGKETELVAVITSGGSTNYADSVKGRFTISRDNAKNTVYLQMNSLKPEDTAVYYCAADPYSVYGGDYWGKGTQVTVSS | low polyreactivity |
| QVQLVESGGGLVQAGGSLRLSCAASGSILYVYAMGWYRQAPGKERELVAVITSGGSTNYADSVKGRFTISRDNAKNTVYLQMNSLKPEDTAVYYCRFKYAVAHHFWVYRYDYWGQGTQVTVSS | low polyreactivity |
| QVQLVESGGGLVQAGGSLRLSCAASGSILYYALGWYRQAPGKESELVATITRGGSTYYADSVKGRFTISRDNAKNTVYLQMNSLKPEDTAVYYCAARRAVRVGYYWHDISSYDYWGQGTQVTVSS | low polyreactivity |
| QVQLVESGGGLVQAGGSLRLSCAASGSILYYNAMGWYRQAHGKEREFVASISLTGGSTTYADSVKGRFTISRDNAKNTVYLQMNSLKPEDTAVYYCNATHYPAADRSTNNYGGGFDYWGEGTQVTVSS | low polyreactivity |
| QVQLVESGGGLVQAGGSLRLSCAASGSINHYAMGWYRQAPGKERELVAAISSSGGTTYYADSVKGRFTISRDNAKNTVYLQMNSLKPEDTAVYYCAADKLSGGLDYWGQGTQVTVSS | high polyreactivity |
| QVQLVESGGGLVQAGGSLRLSCAASGSISDIYTMGWYRQAPGKERELVAAITGSAGSTYADSVKGRFTLSRDNAKNTVYLQMNSLKPEDTAVYYCNAQPGDDVKVKLDYWGQGTQVTVSS | low polyreactivity |
| QVQLVESGGGLVQAGGSLRLSCAASGSISDWNAMGWYRQAPGKERELVAAINWSGDTTYYADSVKGRFTFSRDNSKNTVYLQMNSLKPEDTAVYYCAAYLVVDYDWYDYWGQGTQVTVSS | high polyreactivity |
| QVQLVESGGGLVQAGGSLRLSCAASGSISDWNAMGWYRQAPGKERELVAAINWSGDTTYYADSVKGRFTISRDTAKNTVYLQMNSLKPEDTAVYYCAADLVVDYEWYDYWGQGTQVTVSS | high polyreactivity |
| QVQLVESGGGLVQAGGSLRLSCAASGSISDYYAMGWYRQAPGKERELVAAISWDGGSTYYADTVKGRFTISRDNAKNTVYLQMNSLKPEDTAVYYCNAGSGASVGNHILYDYWGQGTQVTVSS | low polyreactivity |
| QVQLVESGGGLVQAGGSLRLSCAASGSISGLNAMGWYRQAPGKERELVAAISRSGGRTYYADSVKGRFTISRDNAKNTVYLQMNSLKPEDTAVYYCAAVTTWRMDYWGQGTQVTVSS | high polyreactivity |
| QVQLVESGGGLVQAGGSLRLSCAASGSISGLYAMGWYRQAPGKERELVARIRWRGDSTYYADSVKGRFTISRDNAKNTVYLQMNSLNPEDTAVFYCAASAYSGKVNKYNYWGQGTQVTVSS | high polyreactivity |
| QVQLVESGGGLVQAGGSLRLSCAASGSISGYYTMGWYRQAPGKERELVAAISRSGVRTYYADSVKGRFTISRDNAMNTVYLQMNSLKPEDTAVYYCARKDSSLGDYWGQGTQVTVSS | high polyreactivity |
| QVQLVESGGGLVQAGGSLRLSCAASGSISGYYVMGWYRQAPGKERELVAAITWRGGSTYYADSVKGRFTISRDNAKNTVYLQMNSLKPEDTAVYYCNKVPGRRSTFEYWGQGTQVTVSS | high polyreactivity |
| QVQLVESGGGLVQAGGSLRLSCAASGSISIRNAMGWYRQAPGTERELVAAITYSGGSTYYADSVKGRFTISRDNAKNTVYLQLNRLKPEDTAVYYCAKDHYRFRYDYWGQGTQVTVSS | low polyreactivity |

Source: the nanobody polyreactivity screen of Harvey et al. (2022)
